Substitutions are numbered along the chain they refer to. In names and notes the source's numbering stands.
B1: MamM-CTD (residues 215-318) (domain or fragment, Magnetospirillum gryphiswaldense MSR-1, UniProt V6F235 215-318, looked up)
chain: EAVQNRIVEAAERVPGVRGVIHLRARYVGQDIWADMIIGVDPENTVEQAHEICEAVQAAVCGKIRRIESLHVSAEAREIGDTTKPSFSDQPLSFDEVMLSKVDN
notes: MamM, cation diffusion facilitator of the magnetosome membrane, Magnetospirillum gryphiswaldense MSR-1; Uniformly 13C,15N labelled for the solid-state NMR; also called apo-MamM-CTD; source: purified
B2: MamM-CTD V260P (domain or fragment, Magnetospirillum gryphiswaldense MSR-1, UniProt V6F235 215-318, looked up)
chain: B1 chain with V46P
notes: MamM, Magnetospirillum gryphiswaldense MSR-1; also called V260P MamM-CTD mutant; recombinant MamM-CTD V260P; source: recombinant
B3: C-terminal truncation MamM-CTD mutant (residues 215-293) (domain or fragment, Magnetospirillum gryphiswaldense MSR-1, UniProt V6F235 215-293, looked up)
chain: EAVQNRIVEAAERVPGVRGVIHLRARYVGQDIWADMIIGVDPENTVEQAHEICEAVQAAVCGKIRRIESLHVSAEAREI
notes: MamM, Magnetospirillum gryphiswaldense MSR-1; source: purified

Biological target: the molecule itself
Assay: SEC; Superdex200; apo proteins; elution volume against a calibration curve of marker proteins

| Protein | stoichiometry N |
| --- | --- |
| B1 | 2 |
| B2 | 2 |
| B3 | 2 |
